From article PMC10439028, “SGLT5 is the renal transporter for 1,5-anhydroglucitol, a major player in two rare forms of neutropenia” (Cellular and Molecular Life Sciences: CMLS, 2023)

Substrate: OC[C@H]1OC[C@H](O)[C@@H](O)[C@@H]1O
Test: 1,5-AG uptake in HEK293T cells overexpressing SGLT5 variant Ala522Val
Format: cell-based, human
Conditions: other: variant Ala522Val (rs12604020); pH 7.4; 37.0 °C
Procedure: For a typical transporter experiment we proceeded as follows. […] To minimize cell loss during the various washing steps in the radioactive uptake experiments, the wells where the cells were seeded were previously coated with poly- D-lysine, which improved their adhesion to the plastic surface of the wells. For this, each well of the 24-well plates was treated with 200 µl of a 0.01% poly-L-lysine solution for 10 min, washed 3 times with 1 ml of sterilized water and left to dry for 2 h. Only then could the 24-well plates be seeded with the appropriate cell lines and cultured overnight at 37 °C in 5% CO2.
On day two, the radioactive uptake assay could be performed. The cell culture media was removed by aspiration and cells were incubated for 20 min at 37 °C and 5% CO2 with a basal medium (10 mM HEPES, pH 7.4, 1 mM CaCl2, 1 mM MgCl2, 2 mM KCl) containing 140 mM choline chloride to deplete intracellular Na^2+ ions. […]
Once the uptake medium was added to the cells, the plates were incubated at 37 °C in 5% CO2 during the required time. […] In each experiment, the transport activities were calculated after subtracting a “blank” value, corresponding to the radioactivity in the appropriate control cells (HEK293T cells that were stably or transiently transfected with one of the parent plasmids pEF6/MycHisA, pEF6HisB, pUB82 or pUB83 with no inserted cDNA) that were analyzed in parallel. […]

B1: hSGLT5 Ala522Val (Homo sapiens; A522V) (protein)
chain: MAANSTSDLHTPGTQLSVADIIVITVYFALNVAVGIWSSCRASRNTVNGYFLAGRDMTWWPIGASLFASSEGSGLFIGLAGSGAAGGLAVAGFEWNATYVLLALAWVFVPIYISSEIVTLPEYIQKRYGGQRIRMYLSVLSLLLSVFTKISLDLYAGALFVHICLGWNFYLSTILTLGITALYTIAGGLAAVIYTDALQTLIMVVGAVILTIKAFDQIGGYGQLEAAYAQAIPSRTIANTTCHLPRTDAMHMFRDPHTGDLPWTGMTFGLTIMATWYWCTDQVIVQRSLSARDLNHAKAGSILASYLKMLPMGLIIMPGMISRALFPDDVGCVVPSECLRACGAEVGCSNIAYPKLVMELMPIGLRGLMIAVMLAALMSSLTSIFNSSSTLFTMDIWRRLRPRSGERELLLVGRLVIVALIGVSVAWIPVLQDSNSGQLFIYMQSVTSSLAPPVTAVFVLGVFWRRANEQGAFWGLIAGLVVGATRLVLEFLNPAPPCGEPDTRPAVLGSIHYLHFAVALFVLSGAVVVAGSLLTPPPQSVQIENLTWWTLAQDVPLGTKAGDGQTPQKHAFWARVCGFNAILLMCVNIFFYAYFA
notes: pUB83-hSGLT5-iso2 as well as the various SGLT5 mutants obtained were used to transduce HEK293T cells; expressed in transfected cells; host or cells: HEK293T, lentiviral transduction (pUB83)
Km: 210 ± 12 µM
